These results are taken from the supplement of paper PMC10065799, “High-throughput profiling of sequence recognition by tyrosine kinases and SH2 domains using bacterial peptide display” (eLife, 2023).

In one data set the target is Jak2 (UniProt O60674). Nature of the data set: phosphorylation enrichment, bacterial display (enrichment ratio); higher = better substrate or ligand; peptides without Tyr show the background.
The next data set addresses Fyn (UniProt P06241). Described as above.
The next data set relates to c-Src. Described as above.
The target of a further data set is MERTK (UniProt Q12866). The data set is described as above.
For a further data set, the target named is Fes (UniProt P07332). The data set is described as above.
A further data set concerns the target EPHB1 (UniProt P54762). Described as above.
Another data set deals with Fer (mouse). The description is as above.
In another data set the target is FGFR1 (UniProt P11362). Described as above.
A further data set has as its target FGFR3 (UniProt P22607). Described as above.
Another data set deals with c-Abl (mouse). The description is as above.
A further data set relates to AncSZ. The description is as above.
A further data set deals with Hck (UniProt P08631). The description is as above.
A further data set concerns the target EPHB2 (UniProt P29323). The description is as above.
The next data set concerns the target Grb2 SH2 (UniProt P62993). Nature of the data set: SH2 binding enrichment of the phosphorylated peptide, bacterial display (enrichment ratio); higher = better substrate or ligand; peptides without Tyr show the background.
For the next data set, the target named is SHP2-C SH2. Described as above.
The next data set has as its target c-Src SH2. The description is as above.
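Throughout, for SH2 binding enrichment of the phosphorylated peptide, bacterial display: peptide library displayed on the E. coli surface as eCPX fusions, selected cells deep-sequenced, score is each peptide's frequency after selection divided by its frequency in the input.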
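Throughout, for phosphorylation enrichment, bacterial display: 11-residue human phosphosite peptides and single-mutation variants displayed on the E. coli surface, counted by deep sequencing, each peptide's frequency after selection divided by its frequency in the unselected input library; frequency after pTyr selection over input frequency; kinase dosed for 20-30% of maximal phosphorylation in three min.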

EPHB2, sequence (P29323 whole entry, looked up): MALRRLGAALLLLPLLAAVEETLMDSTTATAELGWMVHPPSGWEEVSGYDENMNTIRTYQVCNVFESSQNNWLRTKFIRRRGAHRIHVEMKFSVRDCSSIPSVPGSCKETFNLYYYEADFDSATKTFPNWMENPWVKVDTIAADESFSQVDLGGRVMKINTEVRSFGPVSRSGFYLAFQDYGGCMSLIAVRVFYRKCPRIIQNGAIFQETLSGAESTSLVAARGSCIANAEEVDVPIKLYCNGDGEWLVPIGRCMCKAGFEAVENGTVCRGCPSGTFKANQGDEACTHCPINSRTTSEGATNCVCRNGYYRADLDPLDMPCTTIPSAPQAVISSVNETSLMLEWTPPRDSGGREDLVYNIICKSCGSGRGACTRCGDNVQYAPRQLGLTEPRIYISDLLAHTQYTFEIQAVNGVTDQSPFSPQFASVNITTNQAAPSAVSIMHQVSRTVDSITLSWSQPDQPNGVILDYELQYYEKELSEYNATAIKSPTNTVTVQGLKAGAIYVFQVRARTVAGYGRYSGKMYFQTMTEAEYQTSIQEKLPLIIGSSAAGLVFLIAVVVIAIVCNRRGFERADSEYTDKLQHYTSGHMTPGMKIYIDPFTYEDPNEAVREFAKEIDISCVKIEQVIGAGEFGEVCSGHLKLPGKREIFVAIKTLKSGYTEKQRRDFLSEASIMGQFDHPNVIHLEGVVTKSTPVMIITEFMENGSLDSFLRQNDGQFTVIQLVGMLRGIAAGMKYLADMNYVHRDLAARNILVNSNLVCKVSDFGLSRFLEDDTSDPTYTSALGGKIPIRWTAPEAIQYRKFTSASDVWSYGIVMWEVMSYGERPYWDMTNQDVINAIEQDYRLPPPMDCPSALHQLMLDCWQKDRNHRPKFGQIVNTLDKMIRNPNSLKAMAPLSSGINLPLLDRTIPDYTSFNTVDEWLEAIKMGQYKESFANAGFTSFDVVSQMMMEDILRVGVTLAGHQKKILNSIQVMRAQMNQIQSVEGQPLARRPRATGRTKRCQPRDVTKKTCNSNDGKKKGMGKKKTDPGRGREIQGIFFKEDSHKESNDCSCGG
Fyn, sequence (P06241 whole entry, looked up): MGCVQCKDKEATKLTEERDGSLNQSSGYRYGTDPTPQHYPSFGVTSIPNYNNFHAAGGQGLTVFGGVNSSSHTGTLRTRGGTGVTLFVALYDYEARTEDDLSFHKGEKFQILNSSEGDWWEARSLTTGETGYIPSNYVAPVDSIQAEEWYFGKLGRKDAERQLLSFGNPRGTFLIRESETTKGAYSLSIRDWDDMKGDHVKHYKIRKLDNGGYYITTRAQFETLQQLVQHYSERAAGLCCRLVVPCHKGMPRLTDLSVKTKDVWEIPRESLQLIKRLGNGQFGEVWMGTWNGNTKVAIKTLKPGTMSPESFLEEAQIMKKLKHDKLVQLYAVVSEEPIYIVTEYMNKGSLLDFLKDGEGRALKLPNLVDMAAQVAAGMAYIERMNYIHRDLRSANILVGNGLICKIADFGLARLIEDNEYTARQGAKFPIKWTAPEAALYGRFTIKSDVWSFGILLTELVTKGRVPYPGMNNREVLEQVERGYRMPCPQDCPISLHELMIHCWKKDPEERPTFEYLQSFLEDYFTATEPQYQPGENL
Grb2 SH2, sequence (P62993 whole entry, looked up): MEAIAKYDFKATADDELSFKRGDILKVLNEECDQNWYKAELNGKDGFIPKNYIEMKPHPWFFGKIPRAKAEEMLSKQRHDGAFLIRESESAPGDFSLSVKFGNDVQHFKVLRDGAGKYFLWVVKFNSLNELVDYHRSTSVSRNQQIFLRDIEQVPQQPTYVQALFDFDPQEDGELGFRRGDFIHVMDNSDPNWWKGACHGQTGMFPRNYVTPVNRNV
EPHB1, sequence (P54762 whole entry, looked up): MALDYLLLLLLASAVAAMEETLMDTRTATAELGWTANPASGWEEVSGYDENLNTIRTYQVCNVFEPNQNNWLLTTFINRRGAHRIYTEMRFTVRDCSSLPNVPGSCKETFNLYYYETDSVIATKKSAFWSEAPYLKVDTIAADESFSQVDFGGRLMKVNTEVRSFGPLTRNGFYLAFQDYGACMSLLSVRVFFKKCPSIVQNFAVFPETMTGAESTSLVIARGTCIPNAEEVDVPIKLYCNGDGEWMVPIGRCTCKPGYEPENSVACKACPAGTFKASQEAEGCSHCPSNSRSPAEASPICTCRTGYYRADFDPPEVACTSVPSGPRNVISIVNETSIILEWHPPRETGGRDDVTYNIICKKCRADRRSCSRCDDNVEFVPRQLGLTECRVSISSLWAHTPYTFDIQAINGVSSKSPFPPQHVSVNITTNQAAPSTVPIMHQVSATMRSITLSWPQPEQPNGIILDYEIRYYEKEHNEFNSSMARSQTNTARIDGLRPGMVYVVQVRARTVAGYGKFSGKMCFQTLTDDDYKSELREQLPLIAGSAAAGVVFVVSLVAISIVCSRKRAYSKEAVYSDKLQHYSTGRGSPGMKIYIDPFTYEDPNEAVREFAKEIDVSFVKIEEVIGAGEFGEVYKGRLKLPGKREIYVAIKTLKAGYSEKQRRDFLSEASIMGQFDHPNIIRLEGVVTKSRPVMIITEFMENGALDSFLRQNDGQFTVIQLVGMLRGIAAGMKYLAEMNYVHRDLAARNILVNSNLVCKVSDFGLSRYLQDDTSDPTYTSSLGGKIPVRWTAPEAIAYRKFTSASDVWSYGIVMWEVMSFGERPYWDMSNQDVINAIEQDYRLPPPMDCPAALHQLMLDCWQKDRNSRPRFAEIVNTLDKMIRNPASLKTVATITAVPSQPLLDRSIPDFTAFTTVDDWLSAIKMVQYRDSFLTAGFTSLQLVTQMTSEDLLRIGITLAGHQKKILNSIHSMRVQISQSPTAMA
Fes, sequence (P07332 whole entry, looked up): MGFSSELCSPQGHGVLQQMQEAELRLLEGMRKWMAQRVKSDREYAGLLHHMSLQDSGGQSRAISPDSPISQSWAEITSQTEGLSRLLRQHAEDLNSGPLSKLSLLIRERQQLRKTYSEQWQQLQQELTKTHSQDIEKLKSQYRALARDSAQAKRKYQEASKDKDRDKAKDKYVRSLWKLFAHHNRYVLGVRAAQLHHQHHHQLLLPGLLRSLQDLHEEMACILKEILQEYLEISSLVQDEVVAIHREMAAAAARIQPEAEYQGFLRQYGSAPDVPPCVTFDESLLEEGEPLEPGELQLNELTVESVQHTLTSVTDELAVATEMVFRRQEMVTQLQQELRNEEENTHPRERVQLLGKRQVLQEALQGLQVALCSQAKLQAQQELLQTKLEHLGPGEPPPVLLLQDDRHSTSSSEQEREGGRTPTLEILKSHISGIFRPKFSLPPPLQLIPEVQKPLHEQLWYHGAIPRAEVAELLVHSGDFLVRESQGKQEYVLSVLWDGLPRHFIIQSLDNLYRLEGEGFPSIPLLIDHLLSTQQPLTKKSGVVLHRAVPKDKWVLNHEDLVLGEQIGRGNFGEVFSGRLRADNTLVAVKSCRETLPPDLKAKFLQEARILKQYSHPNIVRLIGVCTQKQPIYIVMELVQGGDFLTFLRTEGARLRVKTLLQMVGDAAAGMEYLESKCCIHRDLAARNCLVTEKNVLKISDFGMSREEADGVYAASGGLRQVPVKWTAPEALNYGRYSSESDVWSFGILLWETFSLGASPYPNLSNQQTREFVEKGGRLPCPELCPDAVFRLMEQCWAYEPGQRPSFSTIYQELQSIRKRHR
FGFR1, sequence (P11362 whole entry, looked up): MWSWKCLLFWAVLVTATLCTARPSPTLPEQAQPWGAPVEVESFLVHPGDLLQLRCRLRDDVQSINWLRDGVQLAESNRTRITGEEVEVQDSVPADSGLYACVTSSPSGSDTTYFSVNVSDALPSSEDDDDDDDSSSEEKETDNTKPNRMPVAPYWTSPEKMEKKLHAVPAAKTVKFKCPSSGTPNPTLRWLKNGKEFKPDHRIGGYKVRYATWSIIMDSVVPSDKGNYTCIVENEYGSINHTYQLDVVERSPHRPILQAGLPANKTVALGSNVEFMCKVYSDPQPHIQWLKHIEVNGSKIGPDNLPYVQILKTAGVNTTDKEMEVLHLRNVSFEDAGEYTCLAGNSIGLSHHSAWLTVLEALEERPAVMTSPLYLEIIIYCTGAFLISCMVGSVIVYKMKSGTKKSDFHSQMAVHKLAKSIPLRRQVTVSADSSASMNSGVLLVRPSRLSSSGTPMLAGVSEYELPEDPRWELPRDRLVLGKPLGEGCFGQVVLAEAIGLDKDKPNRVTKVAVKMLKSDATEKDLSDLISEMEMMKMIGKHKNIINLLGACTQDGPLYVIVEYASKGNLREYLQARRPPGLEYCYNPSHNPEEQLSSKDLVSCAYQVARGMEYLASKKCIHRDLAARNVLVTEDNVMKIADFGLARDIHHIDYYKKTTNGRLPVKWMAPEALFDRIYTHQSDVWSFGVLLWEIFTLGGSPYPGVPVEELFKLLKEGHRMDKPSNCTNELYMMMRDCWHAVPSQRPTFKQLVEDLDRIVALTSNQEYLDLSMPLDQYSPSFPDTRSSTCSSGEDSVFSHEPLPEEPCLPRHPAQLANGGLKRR
Hck, sequence (P08631 whole entry, looked up): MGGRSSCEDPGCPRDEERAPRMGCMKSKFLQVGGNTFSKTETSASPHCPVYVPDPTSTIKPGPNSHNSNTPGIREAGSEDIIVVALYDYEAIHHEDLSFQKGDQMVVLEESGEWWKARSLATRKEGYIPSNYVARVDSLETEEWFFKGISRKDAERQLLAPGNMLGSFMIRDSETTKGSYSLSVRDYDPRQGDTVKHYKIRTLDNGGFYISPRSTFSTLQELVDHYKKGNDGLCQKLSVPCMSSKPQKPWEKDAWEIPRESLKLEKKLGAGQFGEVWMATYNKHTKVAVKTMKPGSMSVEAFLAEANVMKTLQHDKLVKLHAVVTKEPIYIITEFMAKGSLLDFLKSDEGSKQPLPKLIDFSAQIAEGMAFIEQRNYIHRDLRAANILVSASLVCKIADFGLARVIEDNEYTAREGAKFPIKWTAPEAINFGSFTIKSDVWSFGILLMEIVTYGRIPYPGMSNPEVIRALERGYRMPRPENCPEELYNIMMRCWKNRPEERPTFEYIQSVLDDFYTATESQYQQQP

CTTIHYNYLCN [TP53_Y234_M237L]: the phosphorylation enrichment in the data set with Jak2 amounted to 0.655; with Fyn, 0.51; with c-Src, 0.394; with MERTK it was 0.436; in the data set with Fes it was 0.84; with EPHB1, 0.482. Also, the phosphorylation enrichment was 0.568 with Fer (mouse); 0.505 in the data set with FGFR1; 0.594 in the data set with FGFR3; 0.479 with c-Abl (mouse); 0.873 with AncSZ; 0.536 with Hck. Further, the phosphorylation enrichment with EPHB2 amounted to 0.491. Moreover, the SH2 binding enrichment was determined as 1.45 in the data set with Grb2 SH2, 4.87 in the data set with SHP2-C SH2 and 4.93 with c-Src SH2.
Turning to MSNSAYVKREV [SCN1A_Y1694_F1692S], the phosphorylation enrichment came out at 0.437 in the data set with Jak2; 0.402 in the data set with Fyn; 0.335 in the data set on c-Src; 0.381 with MERTK; 0.562 in the data set with Fes; 0.407 with EPHB1. Also, the phosphorylation enrichment worked out at 0.37 in the data set with Fer (mouse); 0.45 with FGFR1; 0.46 in the data set with FGFR3; 0.442 in the data set with c-Abl (mouse); 0.563 with AncSZ; 0.399 with Hck. The phosphorylation enrichment with EPHB2 turned out to be 0.415. Moreover, the figures for the SH2 binding enrichment in the data set with Grb2 SH2, with SHP2-C SH2 and in the data set with c-Src SH2 were 0.838, 0.753 and 0.454, respectively.
As for IRTDAYVPAMT [RPE65_Y89_R91P], the phosphorylation enrichment with Jak2 came to 0.678; with Fyn it was 0.302; with c-Src, 0.401; with MERTK, 0.367; with Fes, 0.612; in the data set with EPHB1, 0.33. For the same sequence, the phosphorylation enrichment was determined as 0.425 in the data set on Fer (mouse); 0.399 with FGFR1; 0.455 with FGFR3; 0.594 in the data set on c-Abl (mouse); 0.516 with AncSZ; 0.495 with Hck. The phosphorylation enrichment with EPHB2 is 0.336. Besides, the SH2 binding enrichment with Grb2 SH2 turned out to be 0.817; with SHP2-C SH2, 0.62; in the data set with c-Src SH2, 0.463.
Consider GARGRYVMGGP [TNK1_Y277], for which the phosphorylation enrichment is 0.457 in the data set with Jak2; 0.332 in the data set with Fyn; 0.421 in the data set on c-Src; 0.546 in the data set with MERTK; 0.555 in the data set with Fes; 0.504 with EPHB1. Further, the phosphorylation enrichment in the data set on Fer (mouse) stood at 0.405; in the data set with FGFR1, 0.481; in the data set with FGFR3, 0.419; with c-Abl (mouse) it was 0.376; with AncSZ, 0.7; with Hck, 0.379. Further, in the data set with EPHB2, the phosphorylation enrichment came to 0.389. The results for the SH2 binding enrichment with Grb2 SH2, with SHP2-C SH2 and with c-Src SH2 were 0.512, 0.548 and 0.435, respectively.
With QDGFSYPSRQM [LDLR_Y847_YF], the phosphorylation enrichment worked out at 0.454 in the data set with Jak2; 0.434 with Fyn; 0.398 with c-Src; 0.415 in the data set with MERTK; 0.53 with Fes; 0.218 in the data set with EPHB1. Also, the phosphorylation enrichment is 0.409 in the data set with Fer (mouse); 0.453 with FGFR1; 0.325 with FGFR3; 0.621 in the data set with c-Abl (mouse); 0.378 with AncSZ; 0.522 with Hck. The phosphorylation enrichment with EPHB2 is 0.479. Further, the SH2 binding enrichment with Grb2 SH2 came out at 1.48; in the data set with SHP2-C SH2, 0.725; with c-Src SH2, 0.66.
With PPDGEYFTLQI [TP53_Y327_L323P], the phosphorylation enrichment with Jak2 worked out at 3.69; with Fyn, 3.74; with c-Src it was 5.4; with MERTK it was 0.902; with Fes it was 1.74; with EPHB1, 1.19. For the same sequence, the phosphorylation enrichment worked out at 1.41 with Fer (mouse); 12.4 with FGFR1; 10.2 with FGFR3; 2.33 in the data set with c-Abl (mouse); 3.41 in the data set on AncSZ; 2.75 in the data set with Hck. The phosphorylation enrichment with EPHB2 amounted to 1.14. Moreover, the SH2 binding enrichment in the data set with Grb2 SH2 was determined as 0.561; in the data set with SHP2-C SH2, 1.1; with c-Src SH2 it was 0.537.
Consider FRVDCYKNFVA [FHL1_Y213_C209R_YF], for which the phosphorylation enrichment in the data set with Jak2 turned out to be 1.11; with Fyn, 0.566; in the data set on c-Src, 0.502; with MERTK, 0.496; in the data set with Fes, 1.49; in the data set with EPHB1, 0.783. Also, the phosphorylation enrichment worked out at 0.58 in the data set with Fer (mouse); 0.542 in the data set with FGFR1; 0.956 in the data set with FGFR3; 0.979 in the data set on c-Abl (mouse); 1.23 with AncSZ; 0.511 with Hck. For the same sequence, the phosphorylation enrichment with EPHB2 was 0.68. Besides, the SH2 binding enrichment with Grb2 SH2 was 0.993; with SHP2-C SH2, 0.703; with c-Src SH2 it was 0.656.
Take YKIYLYTLNDN [FN1_Y1975]: the phosphorylation enrichment with Jak2 came out at 1.4; with Fyn, 0.479; in the data set with c-Src, 0.431; with MERTK it was 0.383; with Fes it was 1.52; with EPHB1, 0.801. Also, the phosphorylation enrichment came to 0.671 with Fer (mouse); 0.541 with FGFR1; 1.02 in the data set with FGFR3; 1.09 in the data set with c-Abl (mouse); 1.34 in the data set on AncSZ; 0.563 in the data set with Hck. Further, the phosphorylation enrichment with EPHB2 is 0.711. Also, the SH2 binding enrichment came out at 0.794 with Grb2 SH2, 0.851 with SHP2-C SH2 and 0.483 with c-Src SH2.
